This test addresses FGFR3 TM-JM-YFP/mCherry (human). Put plainly: FRET or BRET.

Regarding “FGFR3 TM-JM-YFP/mCherry (domain or fragment)”, the percent dimer is 100%.

Source of the values: publication PMC4380549.
